Where a chain is given by its changes, count along the chain named.
T1: CD22-His tag (CD22 extracellular domain; Acrobiosystems Inc.) (UniProt P20273 20-687, limits assumed)
T1 construct: extracellular domain; Bought reagent coated at 100 ng/well; also called CD22 peptide; not shown: His tag
T1 sequence (looked up): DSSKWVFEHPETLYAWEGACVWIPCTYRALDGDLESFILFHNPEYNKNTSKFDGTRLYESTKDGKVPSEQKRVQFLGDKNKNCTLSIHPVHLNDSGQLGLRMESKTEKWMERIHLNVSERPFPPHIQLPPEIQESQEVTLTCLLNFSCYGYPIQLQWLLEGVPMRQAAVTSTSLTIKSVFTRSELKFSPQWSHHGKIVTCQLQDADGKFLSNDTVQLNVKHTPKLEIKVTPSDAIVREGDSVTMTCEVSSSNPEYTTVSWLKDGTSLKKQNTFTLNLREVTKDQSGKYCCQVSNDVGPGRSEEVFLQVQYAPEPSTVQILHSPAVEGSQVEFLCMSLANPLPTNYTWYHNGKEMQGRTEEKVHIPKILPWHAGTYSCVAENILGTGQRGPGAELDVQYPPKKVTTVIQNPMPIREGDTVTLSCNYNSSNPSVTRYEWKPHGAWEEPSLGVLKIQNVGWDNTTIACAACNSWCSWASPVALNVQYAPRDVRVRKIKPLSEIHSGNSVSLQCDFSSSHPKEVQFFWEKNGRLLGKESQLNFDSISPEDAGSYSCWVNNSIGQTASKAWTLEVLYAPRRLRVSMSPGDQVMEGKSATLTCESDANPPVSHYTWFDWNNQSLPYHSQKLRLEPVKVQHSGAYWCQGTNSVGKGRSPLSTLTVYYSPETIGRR

B1: 6B3 antibody (antibody, V domains shown)
VH: EVQLQQSGPELVKPGASVKISCKASGYTFTDYNMHWVKQSHGKSLEWIGYIYPYNGGTGYKQKFKSKATLTVDNSSSTAYMELRSLTSEDSAVYYCARLYYYGRTSYWGQGTTLTVSS
VL: DIVMTQSQKFMSTSVGDRVSVTCKASQNVGTYVAWYQQKPGQSPKALIYSASYRYSGVPDRFTGSGSGTDFTLTISIVQSEDLAEYFCHQYDSYPYTFGGGTKLEIK
notes: Monoclonal antibody from a hybridoma, detected in FACS with goat anti-mouse IgG
B2: 2A9 antibody (antibody, V domains shown)
VH: EVQLEESGAELVKPGASVKMSCKAFGYTFTTYPIEWMKQNHGKSLEWIGNFHPYNDDTKYNEKFKGKAKLTVEKSSSTVYLELSRLTSDDSAVYYCARGDYYVSSWYFDVWGAGTTVTVSS
VL: B1 VL with Y32N, I77N, H89Q, D92N, Y96L, G100S
notes: as for B1
B3: 2G1 antibody (antibody, V domains shown)
VH: EVQLQESGPGLVAPSQSLSITCTVSGFSLTSYDISWIRQPPGKGLEWLGVIWTGGGTNYNSAFMSRLSISKDNSKSQVFLKMNSLQTDDTAIYYCVPHYYGYAMDYWGQGTSVTVSS
VL: DIVLTQSPSSLSASLGGKVTITCKASQDINKYIAWYQHKPGKGPRLLIHYTSTLQPGIPSRFSGSGSGRDYSFSISNLEPEDIATYYCLQYDNLLTFGAGTKLELK
notes: as for B1
B4: 1C2 antibody (antibody, V domains shown)
VH: QVQLQQPGAELVRPGASVKLSCKASGYTFTSYWMNWVKQRPGQGLEWIGMIDPSDSETHYNQMFKDKATLTVDKSSSTAYMQLSSLTSEDSAVYYCARWGNYDYDVWAMDYWGQGTSVTVSS
VL: DVLMTQTPLSLPVSLGDQASISCRSSQNIVHLNGNTFLEWFLQKPGQSPKLLIYKVSNRFSGVPDRFSGSGSGTDFTLKISRVEAEDLGVYYCFQGSHVPYTFGGGTKLEIK
notes: Monoclonal antibody from a hybridoma (fusion with mouse myeloma cells), detected in FACS with goat anti-mouse IgG
B5: 9E9 antibody (antibody, V domains shown)
VH: EVQLEESGAELVRPGSSVKISCKASGYAFSIYWMNWVKQRPGQGLEWIGQIYPGDGDTNYNGKFKGKATLTADKSSSTAYMQLSSLTSEDSAVYFCARRGITPWFAYWGQGTLVTVSA
VL: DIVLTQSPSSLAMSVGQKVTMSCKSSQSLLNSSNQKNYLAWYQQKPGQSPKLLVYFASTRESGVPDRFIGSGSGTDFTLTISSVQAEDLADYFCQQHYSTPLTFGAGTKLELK
notes: as for B1

These binders were tested against T1, CD22-His tag (CD22 extracellular …) (assay: ELISA, CD22-His tag coated at 100 ng/well, primary antibody 0.4 ug/ml).
Procedure: 1C2, 9E9, 2A9, 2G1 and 6B3 antibodies were treated in each well, and then reacted at room temperature for 2 hours, and then washed 3 times with 1 X PBST. Secondary antibody ([…], 1:10,000) was treated and reacted at room temperature for 30 minutes, washed 3 times with 1 X PBST, and then treated with TMB for color development and reacted at room temperature for 5 minutes. Finally, the reaction was terminated by treatment with a stop solution of 1N H₂SO₄, and then the absorbance was measured at 450 nm.

| Binder | OD450 measurements [absorbance at 450 nm] |
| --- | --- |
| B1 | 1.79 |
| B2 | 2.93 |
| B3 | 2.54 |
| B4 | 2.43 |
| B5 | 1.76 |
